According to IntAct's records for PubMed 31515488:

B1: Rab-like protein 2A (Homo sapiens), Q9UBK7 (parent)
chain: MAEDKTKPSELDQGKYDADDNVKIICLGDSAVGKSKLMERFLMDGFQPQQLSTYALTLYKHTATVDGKTILVDFWDTAGQERFQSMHASYYHKAHACIMVFDIQRKVTYRNLSTWYTELREFRPEIPCIVVANKIDDINVTQKSFNFAKKFSLPLYFVSAADGTNVVKLFNDAIRLAVSYKQNSQDFMDEIFQELENFSLEQEEEDVPDQEQSSSIETPSEEVASPHS
partner: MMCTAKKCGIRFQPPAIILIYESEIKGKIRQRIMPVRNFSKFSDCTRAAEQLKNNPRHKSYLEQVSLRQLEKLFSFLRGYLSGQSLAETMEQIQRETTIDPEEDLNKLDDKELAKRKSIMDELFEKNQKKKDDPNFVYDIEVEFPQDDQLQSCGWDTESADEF
B2: G2/M phase-specific E3 ubiquitin-protein ligase (Homo sapiens), Q7L622 (parent)
chain: MNESKPGDSQNLACVFCRKHDDCPNKYGEKKTKEKWNLTVHYYCLLMSSGIWQRGKEEEGVYGFLIEDIRKEVNRASKLKCCVCKKNGASIGCVAPRCKRSYHFPCGLQRECIFQFTGNFASFCWDHRPVQIITSNNYRESLPCTICLEFIEPIPSYNILRSPCCKNAWFHRDCLQVQAINAGVFFFRCTICNNSDIFQKEMLRMGIHIPEKDASWELEENAYQELLQHYERCDVRRCRCKEGRDYNAPDSKWEIKRCQCCGSSGTHLACSSLRSWEQNWECLECRGIIYNSGEFQKAKKHVLPNSNNVGITDCLLEESSPKLPRQSPGSQSKDLLRQGSKFRRNVSTLLIELGFQIKKKTKRLYINKANIWNSALDAFRNRNFNPSYAIEVAYVIENDNFGSEHPGSKQEFLSLLMQHLENSSLFEGSLSKNLSLNSQALKENLYYEAGKMLAISLVHGGPSPGFFSKTLFNCLVYGPENTQPILDDVSDFDVAQIIIRINTATTVADLKSIINECYNYLELIGCLRLITTLSDKYMLVKDILGYHVIQRVHTPFESFKQGLKTLGVLEKIQAYPEAFCSILCHKPESLSAKILSELFTVHTLPDVKALGFWNSYLQAVEDGKSTTTMEDILIFATGCSSIPPAGFKPTPSIECLHVDFPVGNKCNNCLAIPITNTYKEFQENMDFTIRNTLRLEKEESSHYIGH
partner: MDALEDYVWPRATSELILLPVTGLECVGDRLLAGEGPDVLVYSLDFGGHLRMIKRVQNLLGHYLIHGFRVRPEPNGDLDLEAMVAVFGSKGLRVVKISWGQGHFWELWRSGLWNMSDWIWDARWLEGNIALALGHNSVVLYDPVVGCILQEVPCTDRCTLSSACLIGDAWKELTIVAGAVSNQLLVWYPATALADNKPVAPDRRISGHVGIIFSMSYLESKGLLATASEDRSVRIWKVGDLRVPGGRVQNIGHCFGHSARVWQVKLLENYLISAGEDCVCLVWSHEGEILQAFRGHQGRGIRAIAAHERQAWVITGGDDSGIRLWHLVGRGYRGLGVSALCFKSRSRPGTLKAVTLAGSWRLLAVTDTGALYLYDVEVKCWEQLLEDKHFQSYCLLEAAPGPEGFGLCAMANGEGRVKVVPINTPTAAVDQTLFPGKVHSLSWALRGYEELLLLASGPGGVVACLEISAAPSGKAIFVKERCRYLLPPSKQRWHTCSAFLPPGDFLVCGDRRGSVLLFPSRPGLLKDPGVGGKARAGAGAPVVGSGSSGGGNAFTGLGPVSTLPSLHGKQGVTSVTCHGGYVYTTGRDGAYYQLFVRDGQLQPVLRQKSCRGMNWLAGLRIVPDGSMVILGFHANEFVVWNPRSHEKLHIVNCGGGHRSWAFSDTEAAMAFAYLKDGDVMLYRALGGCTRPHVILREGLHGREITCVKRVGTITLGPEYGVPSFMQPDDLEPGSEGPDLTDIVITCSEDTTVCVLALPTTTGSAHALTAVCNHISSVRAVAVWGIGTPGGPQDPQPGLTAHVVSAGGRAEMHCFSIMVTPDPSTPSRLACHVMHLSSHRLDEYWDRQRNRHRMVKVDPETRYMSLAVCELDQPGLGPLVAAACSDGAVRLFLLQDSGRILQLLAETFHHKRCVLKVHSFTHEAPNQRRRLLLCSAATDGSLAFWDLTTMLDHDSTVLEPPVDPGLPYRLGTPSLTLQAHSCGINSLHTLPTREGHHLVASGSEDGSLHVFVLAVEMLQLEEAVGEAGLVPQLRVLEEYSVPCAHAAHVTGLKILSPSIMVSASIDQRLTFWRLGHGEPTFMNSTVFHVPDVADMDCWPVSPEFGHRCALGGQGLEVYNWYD
B3: Tuftelin-interacting protein 11 (Homo sapiens), Q9UBB9 (parent)
chain: MSLSHLYRDGEGRIDDDDDERENFEITDWDLQNEFNPNRQRHWQTKEEATYGVWAERDSDDERPSFGGKRARDYSAPVNFISAGLKKGAAEEAELEDSDDEEKPVKQDDFPKDFGPRKLKTGGNFKPSQKGFAGGTKSFMDFGSWERHTKGIGQKLLQKMGYVPGRGLGKNAQGIINPIEAKQRKGKGAVGAYGSERTTQSMQDFPVVDSEEEAEEEFQKELSQWRKDPSGSKKKPKYSYKTVEELKAKGRISKKLTAPQKELSQVKVIDMTGREQKVYYSYSQISHKHNVPDDGLPLQSQQLPQSGKEAKAPGFALPELEHNLQLLIDLTEQEIIQNDRQLQYERDMVVNLFHELEKMTEVLDHEERVISNLSKVLEMVEECERRMQPDCSNPLTLDECARIFETLQDKYYEEYRMSDRVDLAVAIVYPLMKEYFKEWDPLKDCTYGTEIISKWKSLLENDQLLSHGGQDLSADAFHRLIWEVWMPFVRNIVTQWQPRNCDPMVDFLDSWVHIIPVWILDNILDQLIFPKLQKEVENWNPLTDTVPIHSWIHPWLPLMQARLEPLYSPIRSKLSSALQKWHPSDSSAKLILQPWKDVFTPGSWEAFMVKNIVPKLGMCLGELVINPHQQHMDAFYWVIDWEGMISVSSLVGLLEKHFFPKWLQVLCSWLSNSPNYEEITKWYLGWKSMFSDQVLAHPSVKDKFNEALDIMNRAVSSNVGAYMQPGARENIAYLTHTERRKDFQYEAMQERREAENMAQRGIGVAASSVPMNFKDLIETKAEEHNIVFMPVIGKRHEGKQLYTFGRIVIYIDRGVVFVQGEKTWVPTSLQSLIDMAK
partner: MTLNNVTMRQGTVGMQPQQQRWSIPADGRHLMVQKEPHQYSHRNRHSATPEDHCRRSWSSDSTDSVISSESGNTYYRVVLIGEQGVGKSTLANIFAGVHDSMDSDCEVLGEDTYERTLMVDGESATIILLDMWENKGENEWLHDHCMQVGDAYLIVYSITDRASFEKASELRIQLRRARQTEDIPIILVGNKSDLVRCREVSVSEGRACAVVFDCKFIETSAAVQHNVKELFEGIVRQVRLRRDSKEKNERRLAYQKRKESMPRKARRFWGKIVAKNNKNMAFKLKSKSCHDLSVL
B4: Syntenin-2 (Homo sapiens), Q9H190 (parent)
chain: MSSLYPSLEDLKVDQAIQAQVRASPKMPALPVQATAISPPPVLYPNLAELENYMGLSLSSQEVQESLLQIPEGDSTAVSGPGPGQMVAPVTGYSLGVRRAEIKPGVREIHLCKDERGKTGLRLRKVDQGLFVQLVQANTPASLVGLRFGDQLLQIDGRDCAGWSSHKAHQVVKKASGDKIVVVVRDRPFQRTVTMHKDSMGHVGFVIKKGKIVSLVKGSSAARNGLLTNHYVCEVDGQNVIGLKDKKIMEILATAGNVVTLTIIPSVIYEHMVKKLPPVLLHHTMDHSIPDA
partner: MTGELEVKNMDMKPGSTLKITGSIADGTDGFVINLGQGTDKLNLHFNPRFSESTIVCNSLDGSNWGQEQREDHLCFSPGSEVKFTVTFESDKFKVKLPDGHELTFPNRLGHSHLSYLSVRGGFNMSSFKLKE
B5: Leucine rich adaptor protein 1 (Homo sapiens), Q96LR2 (parent)
chain: MEGTVESQTPDLRDVEGKVGRKTPEGLLRGLRGECELGTSGALLLPGASSTGHDLGDKIMALKMELAYLRAIDVKILQQLVTLNEGIEAVRWLLEERGTLTSHCSSLTSSQYSLTGGSPGRSRRGSWDSLPDTSTTDRLDSVSIGSFLDTVAPSELDEQGPPGAPRSEMDWAKVIAGGERARTEVDVAATRLGSLRAVWKPPGERLQGGPPESPEDESAKLGFEAHWFWEQCQDDVTFL
partner: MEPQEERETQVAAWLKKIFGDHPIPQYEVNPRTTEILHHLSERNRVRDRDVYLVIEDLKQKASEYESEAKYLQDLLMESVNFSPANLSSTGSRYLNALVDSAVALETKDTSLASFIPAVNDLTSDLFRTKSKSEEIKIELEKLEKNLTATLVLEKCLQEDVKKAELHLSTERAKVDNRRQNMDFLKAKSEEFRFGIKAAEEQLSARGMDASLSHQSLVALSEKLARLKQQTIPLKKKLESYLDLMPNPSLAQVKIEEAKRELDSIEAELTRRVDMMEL
B6: Four and a half LIM domains protein 2 (Homo sapiens), Q14192 (parent)
chain: MTERFDCHHCNESLFGKKYILREESPYCVVCFETLFANTCEECGKPIGCDCKDLSYKDRHWHEACFHCSQCRNSLVDKPFAAKEDQLLCTDCYSNEYSSKCQECKKTIMPGTRKMEYKGSSWHETCFICHRCQQPIGTKSFIPKDNQNFCVPCYEKQHAMQCVQCKKPITTGGVTYREQPWHKECFVCTACRKQLSGQRFTARDDFAYCLNCFCDLYAKKCAGCTNPISGLGGTKYISFEERQWHNDCFNCKKCSLSLVGRGFLTERDDILCPDCGKDI
partner: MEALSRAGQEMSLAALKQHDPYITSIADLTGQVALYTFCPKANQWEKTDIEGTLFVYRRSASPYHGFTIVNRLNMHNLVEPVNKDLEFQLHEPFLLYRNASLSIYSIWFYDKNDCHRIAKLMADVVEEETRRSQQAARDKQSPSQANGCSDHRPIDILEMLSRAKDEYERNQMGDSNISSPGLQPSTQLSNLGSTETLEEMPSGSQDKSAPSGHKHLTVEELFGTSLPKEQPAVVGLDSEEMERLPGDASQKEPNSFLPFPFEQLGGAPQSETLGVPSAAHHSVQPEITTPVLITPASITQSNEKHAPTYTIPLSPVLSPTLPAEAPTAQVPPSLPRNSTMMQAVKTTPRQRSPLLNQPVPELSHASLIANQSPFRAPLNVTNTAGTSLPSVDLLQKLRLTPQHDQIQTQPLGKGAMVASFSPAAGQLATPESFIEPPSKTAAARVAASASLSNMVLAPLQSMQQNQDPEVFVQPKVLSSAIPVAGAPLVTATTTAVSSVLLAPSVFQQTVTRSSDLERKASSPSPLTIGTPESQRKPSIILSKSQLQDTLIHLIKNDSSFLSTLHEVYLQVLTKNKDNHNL

Variants of: B1
Details: with cep19_human CEP19, Q96LK0

Variant	effect of a mutation on the interaction
A94T	with no effect
R82Q	with no effect
T53M	with no effect

Variants of: B2
Details: with wdr6_human WDR6, Q9NNW5

Variant	effect of a mutation on the interaction
P328L	with no effect

Variants of: B3
Details: with gem_human GEM

Variant	effect of a mutation on the interaction
R8Q	with no effect
S688L	with no effect

Variants of: B4
Details: with leg2_human LGALS2, P05162

Variant	effect of a mutation on the interaction
R223C	disrupting interaction strength

Variants of: B5
Details: with haus1_human HAUS1, Q96CS2

Variant	effect of a mutation on the interaction
M60L	with no effect
Q207R	with no effect

Variants of: B6
Details: with dcp1a_human DCP1A

Variant	effect of a mutation on the interaction
N95K	with no effect
A37S	with no effect
